According to US7888090B2, “Mutants of O6-alkylguanine-DNA alkyltransferase” (Ecole Polytechnique Federale de Lausanne, priority 2004, dated 2011):

Columns and labels:
[1] = BG-Cy3 activity assay (reaction rate of AGT mutants); assay type: biochemical; conditions: divided by value for wild type hAGT; purified GST fusion proteins (p.)
Experimental: Reactivity against DNA-based substrates measured with a BG-Cy3 assay: BG-Cy3 is prepared by reacting the previously described O^6-(4-aminomethyl-benzyl)guanine (Keppler et al., NatureBiotechnol. 21:86-89, 2003) with the commercially available N-hydroxysuccinimide ester of Cy3, (Cy3-NHS, Amersham). The coupling reaction is performed at ambient temperature in N,N-dimethylformamide in the presence of 1 eq. of triethylamine. The BG-Cy3 conjugate is purified by reversed-phase HPLC on a C18-column by using linear gradients from 0.1% trifluoroacetic acid to acetonitrile. After solvent evaporation BG-Cy3 is dissolved in dimethyl sulfoxide and stored at −20° C. For measuring the reactivity with DNA-based substrates, a reaction mixture containing different concentrations (0 to 5 µM) of oligonucleotide SEQ ID NO:2 (modified in position 14), GST-AGT fusion protein at 0.2 µM and BG-Cy3 at […] in reaction buffer (50 mM HEPES, pH 7.2, 1 mM DTT, 200 mg/ml BSA) is incubated in microtiterplates. Fluorescence of the Cy3 derivative (excitation 519 nm, emission at 572 nm) is measured on a Spectramax Gemini plate reader (Molecular Devices).
The amplified products are cloned in fusion to the g3 gene of filamentous phage in the vector pAK100 via SfiI restriction sites. The resulting gene libraries are used for phage display as described under Example 4. The mutants of the libraries are selected with 5 to 50 nM of BG-Bt for 10 min. Selected mutants are subcloned into pGEX using the primers SEQ ID NO:3 and SEQ ID NO:13. The reaction rate of mutant AGTs is determined as described in Example 6, Reactivity against DNA-based substrates (BG-Cy3 assay).
For the activity assay purified GST fusion proteins were used for mutants marked with “p.” (prepared as described under Example 1); periplasmic extracts were used for mutants marked with “x.” (prepared as described under Example 2).

[2] = Reaction of two AGT variants in one sample with CPTG and BG-Bt; assay type: biochemical; conditions: CPTG and BG-Bt both at 5 μM, 30 minutes
Experimental: FIG. 2: Western blot of the reaction of wild type hAGT (GST-hAGT fusion protein) and AGTM with the two substrates N^9-cyclopentyl-O^6-bromophenyl-guanine (CPTG) and biotinylated O^6-benzylguanine (BG-Bt, substance 3a of Juillerat et al. 2003) as described in Example 7. BG-Bt is present in all samples at 5 μM. Detection with neutravidin-peroxidase conjugate and luminescent peroxidase substrate detecting any AGT reacted with BG-Bt. Even under simultaneous incubation with identical concentrations of CPTG and BG-Bt only about 5% of GST-hAGT reacts with substrate BG-Bt.
Within the experiment two tags with different size for the two AGT proteins are used: The His-tagged AGTM (˜20 kDa) and GST-hAGT (cloned and prepared as described in Example 1, but starting with the wild type hAGT gene, ˜48 kDa) are diluted to 0.2 μM and 1.2 μM final concentration, respectively, in reaction buffer containing 50 mM HEPES, 1 mM DTT, 200 mg/mL BSA (pH 7.3). The sample is incubated with a mixture of substrates N^9-cyclopentyl-O^6-bromophenyl-guanine (CPTG; 0, 5 and 10 μM final concentrations) and biotinylated O^6-benzylguanine (BG-Bt, 5 μM final concentration) for 30 minutes. The reaction is quenched by addition of SDS-Laemmli buffer and subjected to Western blotting analysis (Example 1). As the two AGT variants have different masses, the two proteins can be separated on an acrylamide gel and analyzed independently. […] At the same concentration (both substrates at 5 μM final concentration), 95% of GST-hAGT reacts with CPTG, versus only 5% of His-tagged AGTM.

[3] = Expression yield of soluble GST-AGT fusion protein; design: species or system E. coli; conditions: comparator not stated
How it was run: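 GST-AGT fusions expressed in E. coli BL21, induced with 0.5 mM IPTG for 3.5 h at 24 °C, and purified from the soluble fraction on glutathione sepharose. Soluble and insoluble fractions compared by SDS-PAGE. Yield taken from A280 relative to wild-type hAGT purified the same way.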

B1: AGTM: AGT mutant Cys62Ala, Gln115Ser, Gln116His, Lys125Ala, Ala127Thr, Arg128Ala, Gly131Lys, Gly132Thr, Met134Leu, Arg135Ser, Cys150Asn, Ser151Ile, Ser152Asn, Asn157Gly, Ser159Glu, truncated after … (protein, UniProt P16455 1-207, looked up, variant C62A Q115S Q116H K125A A127T R128A G131K G132T M134L R135S C150N S151I S152N N157G S159E del183-207)
Methylated-DNA--protein-cystei …: MDKDCEMKRTTLDSPLGKLELSGCEQGLHEIKLLGKGTSAADAVEVPAPAAVLGGPEPLMQATAWLNAYFHQPEAIEEFPVPALHHPVFQQESFTRQVLWKLLKVVKFGEVISYSHLAALAGNPAATAAVKTALSGNPVPILIPCHRVVNINGAVGGYEGGLAVKEWLLAHEGHRLGKPGLG
modifications: His tag
- Relative reaction rate [1]: 2.72
- fraction of protein reacting with CPTG [2]: 5%
- expression yield in E. coli [3]: increased expression yield
